US20240409645A1 (DUALYX, published 2024)
Where two headings read alike, the source gives them in different places.

Key:
human IL-2Rβ [1] = target: T1, human IL-2Rβ (human, UniProt P14784 27-240, limits assumed); assay: SPR, P.E. off-rate
T1 construct: recombinant protein, coated or immobilised; also called hu IL-2R; IL-2R beta
T1 sequence: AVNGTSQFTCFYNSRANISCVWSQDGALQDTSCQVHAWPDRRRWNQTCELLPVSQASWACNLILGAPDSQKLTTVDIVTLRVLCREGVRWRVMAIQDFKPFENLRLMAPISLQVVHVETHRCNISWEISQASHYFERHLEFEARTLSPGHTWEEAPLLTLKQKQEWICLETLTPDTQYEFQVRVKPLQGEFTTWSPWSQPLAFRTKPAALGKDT
Experimental: SPR was performed to determine dissociation rates using Biacore 3000 instrument (GE Healthcare). Briefly, human and mouse IL-2R proteins were immobilized on carboxylmethyl dextran sensor chip (CM5) at approximately 2500 RUs using amine coupling in acetate buffer (GE Healthcare). The VHH-containing P.E. were loaded with a flow rate of 30 uL/min and the off-rates were measured over a 120s period.

human IL-2Rβ [2] = target: T1, human IL-2Rβ; assay: P.E. ELISA, coated protein
Experimental: In a binding ELISA, human or mouse IL-2Rα, IL-2Rβ and IL-2Rγ proteins were coated directly on maxisorp microtiter plates overnight at 4° C. Free binding sites were blocked using 4% Marvel in PBS for 1 hour. Next, 1:5 dilution of P.E. in 1% Marvel/PBS were added to wells and incubated for 1 hour. […] Binding specificity was determined based on O.D. at 450 nm values compared to negative controls.

[3] = target: T2, human IL-2 receptor (IL-2Rα/IL-2Rβ/γc) (human, UniProt P01589 22-272; P14784 27-551; P31785 23-369); assay: cell-based or functional assay
T2 sequence 1: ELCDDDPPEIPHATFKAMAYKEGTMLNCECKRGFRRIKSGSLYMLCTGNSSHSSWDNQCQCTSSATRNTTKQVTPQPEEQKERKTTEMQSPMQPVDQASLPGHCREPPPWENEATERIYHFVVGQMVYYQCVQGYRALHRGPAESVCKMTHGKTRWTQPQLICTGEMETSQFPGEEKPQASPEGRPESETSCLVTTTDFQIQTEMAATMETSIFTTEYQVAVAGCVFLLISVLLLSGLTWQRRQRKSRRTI
T2 sequence 2: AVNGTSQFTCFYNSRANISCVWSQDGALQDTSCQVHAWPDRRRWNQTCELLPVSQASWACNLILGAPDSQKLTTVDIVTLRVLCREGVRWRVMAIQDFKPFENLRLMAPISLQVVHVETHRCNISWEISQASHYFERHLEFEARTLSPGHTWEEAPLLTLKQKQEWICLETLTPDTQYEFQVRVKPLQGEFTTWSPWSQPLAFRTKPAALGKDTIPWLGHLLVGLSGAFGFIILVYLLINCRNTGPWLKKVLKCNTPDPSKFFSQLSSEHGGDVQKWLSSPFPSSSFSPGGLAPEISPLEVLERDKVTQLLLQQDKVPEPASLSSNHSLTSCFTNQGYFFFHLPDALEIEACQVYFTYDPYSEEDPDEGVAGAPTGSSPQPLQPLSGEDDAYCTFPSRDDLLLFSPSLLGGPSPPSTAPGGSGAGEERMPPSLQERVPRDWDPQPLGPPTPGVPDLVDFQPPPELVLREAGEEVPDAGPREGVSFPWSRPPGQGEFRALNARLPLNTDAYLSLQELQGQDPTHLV
T2 sequence 3: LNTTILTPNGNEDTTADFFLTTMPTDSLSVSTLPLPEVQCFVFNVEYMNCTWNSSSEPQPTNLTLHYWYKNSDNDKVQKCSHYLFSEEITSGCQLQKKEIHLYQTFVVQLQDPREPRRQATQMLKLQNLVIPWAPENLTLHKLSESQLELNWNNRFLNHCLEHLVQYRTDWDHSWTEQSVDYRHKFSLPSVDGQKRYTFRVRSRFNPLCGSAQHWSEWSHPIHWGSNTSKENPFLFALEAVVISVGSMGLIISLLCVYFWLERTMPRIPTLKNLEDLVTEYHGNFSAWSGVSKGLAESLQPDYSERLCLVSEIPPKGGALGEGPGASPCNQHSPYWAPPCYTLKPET

[4] = target: T2, human IL-2 receptor (IL-2Rα/IL-2Rβ/γc); assay: cell-based or functional assay; remark: listed apart in the source

B1: FJ1427_P035MP02E03 (VHH)
VHH: EVQLVESGGGSVQTGGSLRLSCVVSGSHFISDVMGWYRQVPGKQRELVADMADGGSVKYGDSVKGRFTILRDSVKNTVTLQMSSLNPEDTGVYYCKAGLWITGRHFDYWGQGTQVTVTS
notes: soluble VHH in periplasmic extract; also called clone nr
koff (human IL-2Rβ [1]): 0.000169 s⁻¹ | P.E. binding ELISA OD (human IL-2Rβ [2]): 0.242 OD450 nm

B2: FJ1427 P035MP02C01 (VHH)
VHH: QVQLVESGGGLVQPGGSLGLSCAASGFTFDNYAMSWVRQAPGKGLEWVSSITGAGRGTHYADSVKGRFTISRDNAKNTLYLQMNSLKPEDTAVYYCAKYSSSTYYPPTPARGTDYRGPGTQVTVSS
notes: soluble VHH in periplasmic extract; also called clone nr; 99
koff (human IL-2Rβ [1]): 0.000789 s⁻¹ | P.E. binding ELISA OD (human IL-2Rβ [2]): 0.7 OD450 nm

B3: FJ1427_P035MP02A03 (VHH)
VHH: QVQLVESGGGLVQPGGSLRLSCAASGFTFSNYAMSWVRQAPGKGLEWVSSITGAGRGTYYAESVKGRFTISRDNDKNTLYLQMNSLKPEDTAVYYCAKYDSSTFYPPTPARGIADRGQGTRVTVSS
notes: as for B1
koff (human IL-2Rβ [1]): 0.000571 s⁻¹ | P.E. binding ELISA OD (human IL-2Rβ [2]): 0.207 OD450 nm

B4: FJ1427 P035MP02D05 (VHH)
VHH: QVQLVESGGGLVQPGESLGLSCAASGFTFSNYAMSWVRQAPGKGLEWVSSITGAGRGTDYADSVKGRFTISRDNAKNTLYLQMNSLKPEDTAVYYCAKYSSGTYYPPTPVRGTDYRGQGTQVTVSS
notes: as for B1
koff (human IL-2Rβ [1]): 0.00279 s⁻¹ | P.E. binding ELISA OD (human IL-2Rβ [2]): 0.118 OD450 nm

B5: FJ1427 P035MP02E06 (VHH)
VHH: QVQLVESGGGSVQPGGSLRLSCAASGFTFSNYAMSWVRQAPGKGLEWVASITGFGRGTDYADSVKGRFTISRDNAEDTLYLQMNSLKPEDTAVYYCAKYSSSTYYPPTPARGRDYRGQGTQVTVSS
notes: soluble VHH in periplasmic extract; also called 15-MP02E06; clone nr
koff (human IL-2Rβ [1]): 0.00169 s⁻¹ | P.E. binding ELISA OD (human IL-2Rβ [2]): 0.581 OD450 nm

B6: FJ1427 P035MP02C06 (VHH)
VHH: QLQLVESGGGLVQPGGSLELSCAASGFTFSNYAMSWVRQAPGKGLEWVSSITGFGRGTDYADSVKGRFTISRDNAKNTLYLQMNSLKPEDTAVYYCARYSSSTYYPPTPARGRDYRGQGTQVTVSS
notes: as for B1
koff (human IL-2Rβ [1]): 0.00217 s⁻¹ | P.E. binding ELISA OD (human IL-2Rβ [2]): 0.351 OD450 nm

B7: FJ1427_P035MP02A02 (VHH)
VHH: QVQLVESGGGLVQPGGSLRLSCAASGFTFDNYAMTWVRQAPGKGLEWVSSITGAGRGTHYADSVKGRFTISRDNAKNTLYLQVNSLKPEDTAVYYCARYSSSTYYPTTPVRGTDYRGQGTQVTVSS
notes: as for B1
koff (human IL-2Rβ [1]): 0.00262 s⁻¹ | P.E. binding ELISA OD (human IL-2Rβ [2]): 0.223 OD450 nm

B8: DC00068 (other)
chain 1: EVQLVESGGGLVQTGGSLRLSCAASGGTFSRDAMAWFRQVPGKEREFVALISWSGATTNYADSVKGRFAISRDNGKNTVYLQMNRLKPADTAIYYCAADRRPMGSRSYFEPTEYDDWGQGTQVTVSSGGGGSGGGGSGGGGSQVQLVESGGGLVQPGGSLRLSCATSGFTFRNNFMSWVRQAPGKGLEWVSTISYGGESTTYAESVKGRFTISRDNAKNTLYLQMNNLKPEDTAVYYCAKATSYDSIRSGSRGQGTQVTVSSDKTHTCPPCPAPEAAGGPSVFLFPPKPKDTLMISRTPEVTCVVVDVSHEDPEVKFNWYVDGVEVHNAKTKPREEQYNSTYRVVSVLTVLHQDWLNGKEYKCKVSNKALGAPIEKTISKAKGQPREPQVYTLPPSRDELTKNQVSLTCLVKGFYPSDIAVEWESNGQPENNYKTTPPVLDSDGSFLLYSKLTVDKSRWQQGNVFSCSVMHEALHNHYTQKSLSLSPGK
chain 2: QVQLVESGGGLVQAGGSLTLSCAAPGRTFGTDVVGWFRQAPGKEREFVASISRSGDGIYYDDSVKGRFTISRNNAWNTVNLQMNSLKVEDTAVYYCAAGDGWSTYDYWGQGTQVTVSSGGGGSGGGGSGGGGSQVQLVESGGGLVQPGGSLRLSCATSGFTFRNNFMSWVRQAPGKGLEWVSTISYGGESTTYAESVKGRFTISRDNAKNTLYLQMNNLKPEDTAVYYCAKATSYDSIRSGSRGQGTQVTVSSGGGGSGGGGSGGGGSEVQLVESGGGLVQTGGSLRLSCAASGGTFSRDAMAWFRQVPGKEREFVALISWSGATTNYADSVKGRFAISRDNGKNTVYLQMNRLKPADTAIYYCAADRRPMGSRSYFEPTEYDDWGQGTQVTVSSGGGGSGGGGSGGGGSDKTHTCPPCPAPEAAGGPSVFLFPPKPKDTLMISRTPEVTCVVVDVSHEDPEVKFNWYVDGVEVHNAKTKPREEQYNSTYRVVSVLTVLHQDWLNGKEYKCKVSNKALGAPIEKTISKAKGQPREPQVYTLPPSRDELTKNQVSLTCLVKGFYPSDIAVEWESNGQPENNYKTTPPVLDSDGSFFLYSRLTVDKSRWQQGNVFSCSVMHEALHNHYTQKSLSLSPGK
EC50 (nM) pSTAT5, NK, human PBMCs [3]: 0.0936 nM | EC50 (nM) pSTAT5, Treg, human PBMCs [3]: 0.00189 nM | Fold Max signal (% pSTAT5+) Treg/NK [3]: 6 fold | Max signal (% pSTAT5+), NK [3]: 14 % pSTAT5+ | Max signal (% pSTAT5+), Treg [3]: 83 % pSTAT5+ | fold EC50 NK/Treg [3]: 49 fold | EC50 (nM) pSTAT5, NK, human PBMCs [4]: 0.00127 nM | EC50 (nM) pSTAT5, Treg, human PBMCs [4]: 0.425 pM | Fold Max signal (% pSTAT5+) Treg/NK [4]: 9 fold | Max signal (% pSTAT5+), NK [4]: 3.39 % pSTAT5+ | Max signal (% pSTAT5+), Treg [4]: 30 % pSTAT5+ | fold EC50 NK/Treg [4]: 3 fold

B9: FJ1427_P035MP02F03 (VHH)
VHH: EVQLVESGGGLVQAGGSLRLSCAASGGTFSSYAMGWFRQAPGKEREFVAATTRGGGRTMYAVSTEGRFTCSRDNAKNTVYLLMNSLKPEDTAVYYCAAMTSYYSGTYYPDSSDFDIWGQGTQVTVSS
notes: as for B1
koff (human IL-2Rβ [1]): 0.000828 s⁻¹ | P.E. binding ELISA OD (human IL-2Rβ [2]): 0.212 OD450 nm

B10: FJ1427_P035MP02E04 (VHH)
VHH: EVQLVESGGGLVQAGGSLRLSCAASGGTFSSYAMGWFRQAPGKEREFVAATTRGGGRTMYAVSTEGRFTCSRDNAKNTVYLQMNSLKPKDTAIYYCAAMTSYYSGTYYPDSSDFDIWGQGTQVTVSS
notes: as for B1
koff (human IL-2Rβ [1]): 0.000716 s⁻¹ | P.E. binding ELISA OD (human IL-2Rβ [2]): 0.255 OD450 nm

B11: FJ1427 P035MP02H04 (VHH)
VHH: QVQLVESGGGLVQAGDSLRLSCATSGLTFSSYALGWFRQAPGKKREFVAATTRGGGRTMYAVSTEGRFTCSRDNDKNTVYLLMNSLKPKDTAVYYCAAMTSYYSGTYYPDSSDFDIWGQGTQVTVSS
notes: as for B1
koff (human IL-2Rβ [1]): 0.00051 s⁻¹ | P.E. binding ELISA OD (human IL-2Rβ [2]): 0.376 OD450 nm

B12: FJ1427_P035MP02B04 (VHH)
VHH: EVQLVESGGGLVQAGGSLGLSCAASGGTFSSYAMGWFRQAPGKEREFVAATTRGGGRTMYAVSTEGRFTCSRDNAKNTVYLQMNSLKPKDTAIYYCAAMTSYYSGTYYPDSSDFDIWGQGTQVTVSS
notes: as for B1
koff (human IL-2Rβ [1]): 0.000449 s⁻¹ | P.E. binding ELISA OD (human IL-2Rβ [2]): 0.375 OD450 nm

B13: FJ1427_P035MP02A06 (VHH)
VHH: QVQLQESGGGLVQAGGSLRLSCAASGGTFSSYAMGWFRQAPGKEREFVAATTRGGGRTMYAVSTEGRFTCSRDNDKNTVYLLMNSLKPKDTAVYYCAAMTSYYSGTYYPDSSDFDIWGQGTQVTVSS
notes: as for B1
koff (human IL-2Rβ [1]): 0.000484 s⁻¹ | P.E. binding ELISA OD (human IL-2Rβ [2]): 2.55 OD450 nm

B14: FJ1427_P035MP02D03 (VHH)
VHH: QVQLVESGGGLVQAGGPLRLSCAASGGTFSSYAMGWFRQAPGKEREFVAATTRGGGRTMYAVSTEGRFTCSRDNAKNTVYLLMNSLKPEDTAVYYCAAMTSYYSGTYYPDSSDFDIWGQGTQVTVSS
notes: as for B1
koff (human IL-2Rβ [1]): 0.000226 s⁻¹ | P.E. binding ELISA OD (human IL-2Rβ [2]): 0.286 OD450 nm
